In the experiment the target is human complement regulatory factor H (hfH) (human) (UniProt P08603). Nature of the experiment: SPR. Background: SPR reads the build-up and loss of mass on a sensor chip optically.

pKd: −log10 of the molar value.

human complement regulatory factor H (hfH) (human), sequence (P08603 19-1231): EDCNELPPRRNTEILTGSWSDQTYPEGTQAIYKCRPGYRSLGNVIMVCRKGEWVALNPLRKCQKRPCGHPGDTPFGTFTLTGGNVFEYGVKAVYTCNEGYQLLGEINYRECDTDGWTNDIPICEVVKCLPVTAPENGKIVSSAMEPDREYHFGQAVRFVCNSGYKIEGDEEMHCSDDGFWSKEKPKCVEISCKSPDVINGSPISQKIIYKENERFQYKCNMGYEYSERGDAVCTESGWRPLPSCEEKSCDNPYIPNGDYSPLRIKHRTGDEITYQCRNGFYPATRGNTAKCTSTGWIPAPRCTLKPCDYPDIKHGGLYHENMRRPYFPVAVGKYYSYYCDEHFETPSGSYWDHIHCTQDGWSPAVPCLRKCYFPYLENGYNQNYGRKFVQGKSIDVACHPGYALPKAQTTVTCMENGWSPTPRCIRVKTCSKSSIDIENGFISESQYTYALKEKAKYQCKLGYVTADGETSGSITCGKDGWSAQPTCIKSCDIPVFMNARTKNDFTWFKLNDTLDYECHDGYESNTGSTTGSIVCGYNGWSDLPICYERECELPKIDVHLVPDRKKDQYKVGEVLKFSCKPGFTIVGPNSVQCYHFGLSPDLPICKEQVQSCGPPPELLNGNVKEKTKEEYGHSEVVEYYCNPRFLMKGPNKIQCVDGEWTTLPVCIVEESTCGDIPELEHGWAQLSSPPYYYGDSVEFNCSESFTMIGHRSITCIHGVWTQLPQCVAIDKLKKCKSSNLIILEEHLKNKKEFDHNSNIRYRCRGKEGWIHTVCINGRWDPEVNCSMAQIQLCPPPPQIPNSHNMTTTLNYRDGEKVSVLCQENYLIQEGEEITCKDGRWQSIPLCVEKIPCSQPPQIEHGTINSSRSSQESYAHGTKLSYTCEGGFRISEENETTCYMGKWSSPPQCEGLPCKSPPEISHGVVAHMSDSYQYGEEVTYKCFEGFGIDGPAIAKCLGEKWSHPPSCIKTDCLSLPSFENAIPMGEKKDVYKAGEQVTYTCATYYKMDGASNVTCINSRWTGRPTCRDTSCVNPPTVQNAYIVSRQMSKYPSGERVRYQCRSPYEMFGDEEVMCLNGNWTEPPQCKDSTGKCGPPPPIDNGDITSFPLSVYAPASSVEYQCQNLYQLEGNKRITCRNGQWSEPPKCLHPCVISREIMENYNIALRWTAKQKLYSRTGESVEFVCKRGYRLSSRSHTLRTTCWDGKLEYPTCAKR

One may read the pKd as the Kd on a negative log10 scale, so that one unit is a factor of ten. “factor H binding protein (fHbp) variant1-2,3.x from MenB clinical isolate NL096 (from UniProt E6MV22 20-274) (natural protein)” showed a negative-log Kd (pKd) of 7.52.

(Values after PMC9079162.)
